Two substances from article PMC12593833 can be followed below.

Assay [1] deals with synthetic D-streptavidin (mirror-image streptavidin) (S. avidinii). Briefly: SEC; analytical SEC of the folded proteins, with molecular weight standards. (In general: Size exclusion chromatography separates by hydrodynamic size, large species first.)
For assay [2], the target named is synthetic L-streptavidin (S. avidinii). The assay is described as above.

“synthetic D-streptavidin (mirror-image streptavidin)”: the stoichiometry N (in general, the number of molecules, sites or subunits per partner or assembly) in assay [1] was 4.

With “synthetic L-streptavidin (natural protein)”, in assay [2], the stoichiometry N worked out at 4.
